The source of these data is US20100278752A1.

What all share (experiment): cell-based or functional assay
Experiment [1] has as its target Cathepsin H (Homo sapiens (Human)) (UniProt P09668).
The target of experiment [2] is Cathepsin B (Homo sapiens (Human)) (UniProt P07858).
The target in experiment [3] is Cathepsin X/Z/P (Homo sapiens (Human)) (UniProt Q9UBR2).

Where only a bound is given, the exact number is not on record here.

Sequence of Sialostatin L (Q8MVB6 20-133, tags or fused parts left off): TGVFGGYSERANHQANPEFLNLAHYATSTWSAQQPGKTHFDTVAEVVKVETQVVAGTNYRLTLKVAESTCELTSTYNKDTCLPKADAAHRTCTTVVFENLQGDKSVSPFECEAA
Sequence of Cathepsin H (Homo sapiens (Human)) (P09668 116-335 limits assumed, form in doubt): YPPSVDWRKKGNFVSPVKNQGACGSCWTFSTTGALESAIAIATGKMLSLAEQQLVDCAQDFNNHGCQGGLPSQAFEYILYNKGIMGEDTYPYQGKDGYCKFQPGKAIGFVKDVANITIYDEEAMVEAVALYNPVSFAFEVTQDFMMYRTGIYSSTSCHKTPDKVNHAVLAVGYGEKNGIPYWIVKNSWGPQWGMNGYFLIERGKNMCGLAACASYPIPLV
Sequence of Cathepsin X/Z/P (Homo sapiens (Human)) (Q9UBR2 62-303 limits assumed, form in doubt): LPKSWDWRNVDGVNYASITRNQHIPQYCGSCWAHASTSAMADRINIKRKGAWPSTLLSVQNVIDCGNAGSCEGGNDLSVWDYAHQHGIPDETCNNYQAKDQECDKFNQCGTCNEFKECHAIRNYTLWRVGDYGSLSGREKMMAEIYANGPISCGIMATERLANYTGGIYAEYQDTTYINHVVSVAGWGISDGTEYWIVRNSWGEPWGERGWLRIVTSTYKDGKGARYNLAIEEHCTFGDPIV

Take “Sialostatin L (from UniProt Q8MVB6 20-133)”: the IC50 (inhibitor concentration at which 50% inhibition of enzymatic activity is achieved) in experiment [1] and in experiment [2] was more than 10 µM in each case.
Regarding “Sialostatin L2 (from UniProt B7PKZ1 19-132)”, the IC50 (inhibitor concentration at which 50% inhibition of enzymatic activity is achieved) in experiment [1] and in experiment [2] was more than 10 µM throughout. For the same substance, in experiment [3], the IC50 (inhibitor concentration at which 50% inhibition of enzymatic activity is achieved); 16 nM enzyme is more than 10 µM.
